Measurements: PMC11931385, “Structural and functional analysis of cancer-associated missense variants in the retinoblastoma protein pocket domain” (The Journal of Biological Chemistry, 2025)
No end group written: not given here. TMR = tetramethyl rhodamine dye

T1: Rb^P K462E (human, UniProt P06400 380-788, K462E)
T1 construct: also called variant 8
T1 sequence (looked up): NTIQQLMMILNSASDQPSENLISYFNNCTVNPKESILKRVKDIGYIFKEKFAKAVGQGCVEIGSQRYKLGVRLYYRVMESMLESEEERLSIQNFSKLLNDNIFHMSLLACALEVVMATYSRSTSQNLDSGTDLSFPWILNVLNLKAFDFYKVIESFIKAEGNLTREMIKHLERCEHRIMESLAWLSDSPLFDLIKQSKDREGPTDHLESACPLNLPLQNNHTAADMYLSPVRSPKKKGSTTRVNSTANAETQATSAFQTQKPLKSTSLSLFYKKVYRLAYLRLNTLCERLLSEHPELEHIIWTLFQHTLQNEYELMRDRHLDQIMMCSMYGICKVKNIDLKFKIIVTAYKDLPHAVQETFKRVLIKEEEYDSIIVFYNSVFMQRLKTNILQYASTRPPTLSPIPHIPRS

T2: Rb^P Q504E (human, UniProt P06400 380-788, Q504E)
T2 construct: also called variant 19
T2 sequence (looked up): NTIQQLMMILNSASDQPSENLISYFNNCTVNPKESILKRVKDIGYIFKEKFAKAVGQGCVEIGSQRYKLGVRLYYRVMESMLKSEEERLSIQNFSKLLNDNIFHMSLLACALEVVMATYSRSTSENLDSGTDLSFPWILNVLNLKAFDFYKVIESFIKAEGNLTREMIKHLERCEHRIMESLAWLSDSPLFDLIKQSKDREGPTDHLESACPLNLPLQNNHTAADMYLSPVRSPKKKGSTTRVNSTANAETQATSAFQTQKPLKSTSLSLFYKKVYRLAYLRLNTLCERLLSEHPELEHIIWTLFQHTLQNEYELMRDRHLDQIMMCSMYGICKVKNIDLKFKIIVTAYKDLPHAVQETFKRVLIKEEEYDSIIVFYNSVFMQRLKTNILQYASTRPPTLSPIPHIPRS

T3: Rb^P H686Y (human, UniProt P06400 380-788, H686Y)
T3 construct: also called variant 58
T3 sequence (looked up): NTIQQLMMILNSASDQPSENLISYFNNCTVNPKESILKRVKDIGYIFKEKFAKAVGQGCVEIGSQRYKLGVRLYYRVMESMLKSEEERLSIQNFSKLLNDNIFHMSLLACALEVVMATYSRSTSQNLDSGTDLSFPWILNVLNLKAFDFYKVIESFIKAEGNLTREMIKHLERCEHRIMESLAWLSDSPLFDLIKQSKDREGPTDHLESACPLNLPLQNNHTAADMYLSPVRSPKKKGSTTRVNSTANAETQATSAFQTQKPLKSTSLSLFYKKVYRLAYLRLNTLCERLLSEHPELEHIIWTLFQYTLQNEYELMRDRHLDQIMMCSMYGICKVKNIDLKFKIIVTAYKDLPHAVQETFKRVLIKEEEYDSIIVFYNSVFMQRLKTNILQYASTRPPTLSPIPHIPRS

T4: Rb^P M704V (human, UniProt P06400 380-788, M704V)
T4 construct: also called variant 66
T4 sequence (looked up): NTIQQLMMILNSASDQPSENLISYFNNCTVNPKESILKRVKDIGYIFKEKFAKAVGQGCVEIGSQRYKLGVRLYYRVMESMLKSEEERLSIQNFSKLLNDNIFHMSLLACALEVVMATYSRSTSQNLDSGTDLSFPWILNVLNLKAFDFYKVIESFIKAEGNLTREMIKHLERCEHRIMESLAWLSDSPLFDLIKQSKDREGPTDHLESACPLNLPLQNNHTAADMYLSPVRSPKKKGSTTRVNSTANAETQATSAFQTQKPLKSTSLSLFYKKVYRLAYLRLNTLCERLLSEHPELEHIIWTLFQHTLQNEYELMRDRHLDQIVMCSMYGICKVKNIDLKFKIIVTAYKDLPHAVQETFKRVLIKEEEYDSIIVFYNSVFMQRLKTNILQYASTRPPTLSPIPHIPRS

T5: Rb^P A490V (human, UniProt P06400 380-788, A490V)
T5 construct: also called variant 17
T5 sequence (looked up): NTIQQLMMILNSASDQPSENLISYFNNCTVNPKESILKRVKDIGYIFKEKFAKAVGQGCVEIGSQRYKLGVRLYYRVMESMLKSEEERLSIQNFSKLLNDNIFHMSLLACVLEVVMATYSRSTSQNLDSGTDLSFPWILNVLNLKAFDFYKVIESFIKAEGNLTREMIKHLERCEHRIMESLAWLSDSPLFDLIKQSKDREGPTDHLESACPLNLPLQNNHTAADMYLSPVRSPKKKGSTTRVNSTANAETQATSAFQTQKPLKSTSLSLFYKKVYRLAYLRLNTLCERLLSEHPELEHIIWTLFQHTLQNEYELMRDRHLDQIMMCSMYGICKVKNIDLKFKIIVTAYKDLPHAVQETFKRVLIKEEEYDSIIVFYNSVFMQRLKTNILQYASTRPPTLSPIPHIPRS


How the values were obtained:
Assay in all cases: fluorescence polarisation; 37 °C, after the 25 °C reading ramped over 7 min to 37 °C and 2 min incubation; unlabeled Rb^P against 1.5 nM TMR-E2F1^TD or 7.5 nM TMR-E7^LxCxE; 25 mM Tris pH 8.0, 200 mM NaCl, 1 mM DTT, 0.1% Tween-20; apparent Kd
Details in all cases: both partners purified
Rb^P K462E = biological target: T1, Rb^P K462E
Rb^P Q504E = biological target: T2, Rb^P Q504E
Rb^P H686Y = biological target: T3, Rb^P H686Y
Rb^P M704V = biological target: T4, Rb^P M704V
Rb^P A490V = biological target: T5, Rb^P A490V

Row | Binder | Kd (Rb^P K462E) [nM] | Kd (Rb^P Q504E) [nM] | Kd (Rb^P H686Y) [nM] | Kd (Rb^P M704V) [nM] | Kd (Rb^P A490V) [nM]
1 | {TMR}-GEGIRDLFDCDFGDLTPLD (also called E2F^TD; source: synthetic peptide, bought: GenScript) [TMR-E2F1^TD, peptide of the E2F1 transactivation domain] | 67 | 33 | 35 | 129 | 87
2 | DLYCYEQLN (also: TMR label, position not given here, source: synthetic peptide, bought: GenScript) [TMR-E7^LxCxE, LxCxE peptide of the E7 oncoprotein from HPV] | 32 | 11 | 14 | 51 | 33
